Measured values taken from publication PMC5778463.

B1: vRNA promoter (5' nt 1-16 / 3' nt 1-18) (structured_RNA)
RNA 1: AGUAGUAACAAGAGGG
RNA 2: UAUACCUCUGCUUCUGCU
modifications: 5' phosphate on strand 1
B2: capped 12-mer RNA primer (ssRNA)
RNA: AAUCUAUAAUAG
modifications: 5' m7Gppp cap

Target: Influenza A polymerase heterotrimer (PA-PB1-PB2) (Influenza A virus A/little …, UniProt H6QM92;H6QM91;H6QM90 1-713;1-756;1-760)
Assay: crystal structure

Row | Binder | binding result
1 | B1 | binds
2 | B2 | binds
